From the nanobody polyreactivity screen of Harvey et al. (2022)

test: yeast display, Sf9 membrane polyspecificity reagent, FACS + sequencing; frameworks hold sequencing errors
Summary of the method: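 A nanobody's polyreactivity label depends on the gate it was sorted from. Yeast display cells were stained with 10% biotinylated, detergent-solubilized Sf9 membrane reagent for 1 hour at 4 °C, enriched on streptavidin microbeads and sorted by FACS. The low and high (top ~1%) gates were set on anti-HA fluorescence for expression and streptavidin fluorescence for reagent binding.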

Row | Sequence | polyreactivity (PSR sort gate)
1 | QVQLVESGGGLVQAGGSLRLSCAASGIIFYFYAMGWDSQAPGKERELVAAISGTGGRTYYADSVKGRFTISRDNAKNTVYLQMNSLKPEDTAVYYCAADRGGLRWFWQVLYDYWGQGTQVTESS | low polyreactivity
2 | QVQLLETCGGLVHAGCTLRLSCAPSRSTFRYNDMGRYRQAPGKERELDASISWSGGDTYYADSVKGRFTISRDNAKNTVYLQMNSLKPEDTAVYYCDKGNIWISRLMDDWGQGTQVTVSS | low polyreactivity
3 | QVQLVESGGGIVQAGGSLRLSCAASGFTFYYKAMGWYRQAPGKERELVAAISRGGRTNYADSVKGRFTISRDNAKNTVYLEMNSLTPADTAVYYCAADRYNGVYAVYYYGYDYWGQGTKVTVSS | high polyreactivity
4 | QVQLVESGGGLVQAGGSLRLSCAASGSIFSSNAMGWYRQAPGKERELVAAISKSGSRTYYADSVKGRFTISRDNAKNTVYLQMNSLKPEDTAVYYCNAVGVSVYYAIAYDYWGQGTQVTVSS | high polyreactivity
5 | QVQLVESGGGLVQEGGSLRLSCAASGLTFLNNAMGWYRPAPGKERELVAAISDGGSTNYADSVKGRFTISRDNAKNTVYLQMNSMKRDDTAVYYCAAVYTSASYGSWGQGTQVTVSS | low polyreactivity
6 | QVQLVESGGGLVQAGGSLRLTCDASGRIFVHNAMGWYRQAPGKERELVAAISWSGSSTYYADSVKGRFTISRDNAKNSVYLQMNSLKPEDTAVYYCLGQGTQVTVSS | low polyreactivity
7 | QVQLVESGGGLVQAGGSLRLSCAASGRIFFTNAMGWYSQAPGKEREFVAAISKSGARTYYADSVKGRFTISRDNAKNTVYLQMISLKPEDTAVYYCAADVSVYGYYYWGQGTQVTVSS | high polyreactivity
8 | QVQLVESGGGLVQAGGSLRLSCAASGFTFSPYTMGWYRQAPGKERELVATIRYDGTSTYYADSVKGRFTISRDYAKNTVYLQMNSLKPEDTAVYFCAADIWRVYSTFYYWGQGTQVTVSS | low polyreactivity
9 | QVQLVESGGGLDQAGASLRLSCPASGRTFNANVMGWYRQAPGKERELVAAISTGGSTNYADSVKGRFTISRDNAKNTVYLQMNSLKPEDTAVYYCAAAIRVPQGGYYYWGQGTQVTVSS | low polyreactivity
10 | QVQLVESGGRLVQAGGSLRLSCAACGGIIWYNTMGWYRQAPGKERELVAAISDSGGRTSYADSVKGRFTISRDNAKNTVYLQMNSLKPEDTAVYYCNVDYVVSRGFIYRVDYWGQGTQVTVSS | low polyreactivity
11 | QVQLVESGGGLVQAGGSLRLSCAASGRIFPLYAMGWYRQAPGKERELVAAITWRAGITYYADSVKGRFTISRDNAKNTVYLQMNSLKPEDTAVYYCAARFVRGRGFAYGYWGQGTQVTVSS | high polyreactivity
12 | QVQLVESGGGLVQAGGSHRISCAASGNTFVINTMGWYRQAPGKERELVAGISRRGTSTYYADSVKGRFTISRDNAKNTVYLQMNSLKPEDTAVYYCAVYAEIVRYEYWGQGTQVTVSS | high polyreactivity
13 | QVQLVESGGGLVQAGGSLRLSCAASGSIFYRNAMGWYRQAPGKERELVATITVNGGRTYYADSVKGRFTISRDNANNTVYLQMNSLKPEDTAVYDCAKDVHRWDPYDYWGQGTQVTVSS | low polyreactivity
14 | QVQLVESGGGLVQAGGSLRLSCAASGSTSIYYTMGWYRQAPGKERELVAAITRGGRTYYADSVKGRFTISRDNAKNTVYLQMNSLKPEDTAVYYCAATTYLVWGYNYWGQGTQVTVSS | low polyreactivity
15 | QVQLQESGRGLVQAGGSLRLSCAASGTISSRWGKGWYLQAPGKERELFASNDQGASTYYADSVKGRFTISRDNAKNTVYLQMNSLKPEDTEVYYCIAVPSSAGDYWGQGTQVTVSS | low polyreactivity
16 | QVQLVESGGGLVQAGGSLRLSCAASGFTISRYAMGWYRQAPGKERELVAAITWSGVSTYYADSVKGRFTISRDNAKNTVYLQMNSRKPEDTAVYYCAATTYSSSSSHDYWGQGTQVTVSS | low polyreactivity
17 | QVQLVESGGGLVQAGGSLRLICAASGYTFGHYVMGWYRQAPGKERELGAAISRGGGSTSYADSVKGRFTISRDNAKNTVYLQMNSLKPEDTAVYYCAKKSTYFKWSRMYWGQGTQVTVSS | high polyreactivity
18 | QVQLVESGGGLVQAGGSLRLSCAASGGTFRSYAMGWFRQAPGKERELVASISSGGTTNYADSVKGRFTISRDNAKNTVYLQLTSLKPEDTAVYYCAKSYPGRAPGYYSWGQGTQVTVSS | low polyreactivity
19 | QFQLVESGGGLVQAGGSLRLSCAASGIISSVYAMGWYRQAPGKERELVAAISGSGGSTYYADSVKGRFTISRDNAKNTVYLQMNSLKPEDTAVYYCAKGYQYQGNSYGYWGQGTQVTVSS | low polyreactivity
20 | QVQLVESGGGLVQAGGSLRLSCAASGRTFNWYAMGWYRQAPGKEWELVAAISGGGGSTYYADSVKGRFTISRDNAKNTVYLQMNSLKPEDTAVYYCAADVEGWTVESDVYRVGYDYWGQGTQVTVSS | low polyreactivity
21 | QVQLEESGGGLVQAGGSLRLSCAASGRIFGYYPMGWYRQATGKERELVAGISRSGGSTYYADSVKGRFTISRDNAKNTVFLQMISLKPEDTAVYYCAKRVSYYGRYRPYDYWGQGTQVTVSS | high polyreactivity
